# Experimental data published in publication PMC7126280 (Structure (London, England : 1993), 2006).
# B1: SARS-CoV ORF-9b protein (natural protein)
# chain: MDPNQTNVVPPALHLVDPQIQLTITRMEDAMGQGQNSADPKVYPIILRLGSQLSLSMARRNLDSLEARAFQSTPIVVQMTKLATTEELPDEFVVVTAK
# Target: the molecule itself
# Experiment: AUC + other: dynamic light scattering
protein,measurement,value
B1,stoichiometry N,2
